3 molecules from patent US20170165335A1 (IMMATICS BIOTECHNOLOGIES, published 2017) can be followed below.

This assay deals with peptide-receptive MHC class I molecule (HLA-A*02:01 with beta-2-microglobulin) of the UV-ligand exchange assay (human). Put plainly: UV-ligand exchange + anti-b2m ELISA; peptide exchange yield grade (++++ = >=75%). The text has this: Candidate peptides for T cell based therapies according to the present invention were further tested for their MHC binding capacity (affinity). The individual peptide-MHC complexes were produced by UV-ligand exchange, where a UV-sensitive peptide is cleaved upon UV-irradiation, and exchanged with the peptide of interest as analyzed. Only peptide candidates that can effectively bind and stabilize the peptide-receptive MHC molecules prevent dissociation of the MHC complexes. To determine the yield of the exchange reaction, an ELISA was performed based on the detection of the light chain (β2m) of stabilized MHC complexes. The assay was performed as generally described in Rodenko et al. (Rodenko et al., 2006).
96 well MAXISorp plates (NUNC) were coated over night with 2 ug/ml streptavidin in PBS at room temperature, washed 4× and blocked for 1 h at 37° C. in 2% BSA containing blocking buffer. Refolded HLA-A*02:01/MLA-001 monomers served as standards, covering the range of 15-500 ng/ml. Peptide-MHC monomers of the UV-exchange reaction were diluted 100 fold in blocking buffer. Samples were incubated for 1 h at 37° C., washed four times, incubated with 2 ug/ml HRP conjugated anti-β2m for 1 h at 37° C., washed again and detected with TMB solution that is stopped with […]. Absorption was measured at 450 nm. Candidate peptides that show a high exchange yield (preferably higher than 50%, most preferred higher than 75%) are generally preferred for a generation and production of antibodies or fragments thereof, and/or T cell receptors or fragments thereof, as they show sufficient avidity to the MHC molecules and prevent dissociation of the MHC complexes.
In general terms: ELISA stands for enzyme-linked immunosorbent assay.

As to KMDASLGNLFA (synthetic peptide), the peptide exchange yield was at least 75%. On to MLMPVHFLL (synthetic peptide), for which the peptide exchange yield is at least 75%. Next, FLGKVVIDV (synthetic peptide): at least 75%.
